Experimental data reported in article PMC6315749 (Marine Drugs, 2018).
pIC50: −log10 of the molar value.

Columns and labels:
[1] = molecular target: Aplysia californica acetylcholine-binding protein (Aplysia californica); assay: radioligand binding
[2] = molecular target: ligand-binding domain of the human nAChR α9 subunit, de-glycosylated, His-tagged (human) (UniProt Q9UGM1); assay: […] (20 mM Tris-HCl pH 8.0, 1 mg/mL BSA); […]

Substance | pIC50 [1] | pIC50 [2]
αO-conotoxin GeXIVA, ribbon isomer (peptide) | 5.54 | 
αO-conotoxin GeXIVA, beads isomer (peptide) | 5.54 | 5.79
αO-conotoxin GeXIVA, globular isomer (peptide) | 5.54 | 
α-conotoxin RgIA, globular isomer (from UniProt P0C1D0 20-32) (peptide) | 6.71 | < 4.22
α-conotoxin RgIA, ribbon isomer (from UniProt P0C1D0 20-32) (peptide) | 6.00 | 
